Values of other authors as cited in publication PMC10449480.
pKd: −log10 of the molar value.

Molecular target: tryptophanyl-tRNA synthetase (Geobacillus stearothermophilus) (UniProt P00953)

- pKd: 8.30
Substance: tryptophanyl-tRNA synthetase (from UniProt P00953)
